Measured values taken from patent US20250320302A1 (EVOTEC INTERNATIONAL, published 2025).
Where two headings read alike, the source gives them in different places. One block for each binder: values may come before it.

Experiments:
Experiment in all cases: cell-based or functional assay
[1] = target: T1, human CD40 (human, UniProt P25942 21-277)
[2] = target: human IFNγ receptor on HEK-Blue IFN-γ cells (human)
[3] = target: human IFNγ receptor on HEK-Blue IFN-γ cells (human); remark: listed apart in the source
[4] = target: T1, human CD40; remark: listed apart in the source
[5] = target: human IFNγ receptor on HEK-Blue IFN-γ cells (human); remark: listed apart in the source

T1 sequence (P25942 21-277): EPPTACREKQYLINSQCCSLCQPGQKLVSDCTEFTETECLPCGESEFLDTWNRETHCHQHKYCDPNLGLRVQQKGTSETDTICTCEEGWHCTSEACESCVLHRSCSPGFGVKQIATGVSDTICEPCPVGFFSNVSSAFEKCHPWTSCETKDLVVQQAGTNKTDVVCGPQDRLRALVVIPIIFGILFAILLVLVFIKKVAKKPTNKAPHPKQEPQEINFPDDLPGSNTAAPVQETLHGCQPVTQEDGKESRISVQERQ

CD40 EC50 (HEK-Blue CD40L NFκB-SEAP reporter cells) [1]: 8.8 ng/mL
IFNγ EC50 (HEK-Blue IFNγ reporter cells) [2]: 0.142 ng/mL
B1: IFA125 (antibody, human IgG2, kappa)
heavy: QVQLVESGGGVVQPGKSLRLSCAASGFTFSSNGIHWVRQAPGKGLEWVAVIWSDGSNKFYADSVKGRFTISRDNSKNTLYLQMNSLRAEDTAVYYCARASGSGSYYNFFDYWGQGTLVTVSSASTKGPSVFPLAPCSRSTSESTAALGCLVKDYFPEPVTVSWNSGALTSGVHTFPAVLQSSGLYSLSSVVTVPSSNFGTQTYTCNVDHKPSNTKVDKTVERKCCVECPPCPAPPVAGPSVFLFPPKPKDTLMISRTPEVTCVVVDVSHEDPEVQFNWYVDGVEVHNAKTKPREEQFNSTFRVVSVLTVVHQDWLNGKEYKCKVSNKGLPAPIEKTISKTKGQPREPQVYTLPPSREEMTKNQVSLTCLVKGFYPSDIAVEWESNGQPENNYKTTPPMLDSDGSFFLYSKLTVDKSRWQQGNVFSCSVMHEALHNHYTQKSLSLSPGGGGGSGGGGSGGGGSGGGGSQDPYVKEAENLKKYFNAGHSDVADNGTLFLGILKNWKEESDRKIMQSQIVSFYFKLFKNFKDDQSIQKSVETIKEDMNVKFFNSNKKKRDDFEKLTNYSVTDLNVQRKAIHELIQVMAELSPAAKTGKRKRSQMLFRGRRASQ
light: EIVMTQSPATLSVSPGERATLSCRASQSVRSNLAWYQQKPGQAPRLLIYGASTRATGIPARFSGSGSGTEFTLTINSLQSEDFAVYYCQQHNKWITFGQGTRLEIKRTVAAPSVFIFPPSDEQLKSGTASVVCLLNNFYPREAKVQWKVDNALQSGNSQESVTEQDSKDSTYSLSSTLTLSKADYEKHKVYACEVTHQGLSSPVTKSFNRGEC

IFNγ EC50 (HEK-Blue IFNγ reporter cells) [3]: < 0.01 ng/mL
CD40 EC50 (HEK-Blue CD40L NFκB-SEAP reporter cells) [4]: 50.8 ng/mL
IFNγ EC50 (HEK-Blue IFNγ reporter cells) [5]: < 0.001 ng/mL
B2: IFA43 (antibody, human IgG2, kappa)
heavy: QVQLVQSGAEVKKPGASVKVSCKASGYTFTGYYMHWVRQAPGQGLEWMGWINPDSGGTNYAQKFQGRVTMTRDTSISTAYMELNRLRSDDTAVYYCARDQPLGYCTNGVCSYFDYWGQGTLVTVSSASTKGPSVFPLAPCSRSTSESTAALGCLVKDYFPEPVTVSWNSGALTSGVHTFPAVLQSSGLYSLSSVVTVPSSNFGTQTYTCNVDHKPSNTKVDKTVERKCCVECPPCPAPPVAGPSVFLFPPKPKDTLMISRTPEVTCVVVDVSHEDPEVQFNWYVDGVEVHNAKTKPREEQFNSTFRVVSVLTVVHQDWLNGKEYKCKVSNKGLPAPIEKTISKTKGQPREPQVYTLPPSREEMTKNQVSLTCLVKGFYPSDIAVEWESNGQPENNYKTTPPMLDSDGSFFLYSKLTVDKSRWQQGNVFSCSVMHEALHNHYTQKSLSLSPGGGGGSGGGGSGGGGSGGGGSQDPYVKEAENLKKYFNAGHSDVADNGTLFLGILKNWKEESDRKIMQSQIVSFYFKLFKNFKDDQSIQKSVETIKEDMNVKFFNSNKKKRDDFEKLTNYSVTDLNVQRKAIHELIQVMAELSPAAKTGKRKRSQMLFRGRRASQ
light: DIQMTQSPSSVSASVGDRVTITCRASQGIYSWLAWYQQKPGKAPNLLIYTASTLQSGVPSRFSGSGSGTDFTLTISSLQPEDFATYYCQQANIFPLTFGGGTKVEIKRTVAAPSVFIFPPSDEQLKSGTASVVCLLNNFYPREAKVQWKVDNALQSGNSQESVTEQDSKDSTYSLSSTLTLSKADYEKHKVYACEVTHQGLSSPVTKSFNRGEC
